Assay: soluble on expression in E. coli; label from the status in PepcDB or PDB records

Row | Sequence | soluble on expression in E. coli
1 | MAIQTSNLGYPRIGLQREWKKTLEAFWSNKINEEQFLTTMKEIRLQHVKVQQEKGIELIPIGDFTYYDHVLDTAYMLGFIPSRFSEFTSYLDVYFAMARGSKDHVASEMTKWFNTNYHYIVPEYEEGLQISLKDNRPLRLYEEAKQELGVDGKPVILGPYTFLKLAKGYTQEQFATILKQLVAPYVQLLSELHAAGAQIIQVDEPIFASLTKEEVQQAKEIYEAIRKEVPNATLLLQTYFDSVEENYEEIITFPVSSIGLDFVHGKEGNLNAISKYGFPADKTLAVGCIDGRNIWRADLDEVLTLFTTLQKQVQTKDLIVQPSCSLLHTPIDKTEETHLSTELFDALAFANQKLEELVLIHSALTQGTESISNELETYRNVHHTIRSSAARNREDVKAARTALKEEDFSRPLPFEKRYELQQVALKLPLLPTTTIGSFPQTTEVRQTRKEWRNGIISNEQYEQFIEKETEKWIRYQEEIGLDVLVHGEFERTDMVEYFGERLAGFSFTKNGWVQSYGSRCVKPPVIYGDVAFINGMTIKETVYAQSLTEKVVKGMLTGPVTILNWSFVRNDIPRKEVSYQIALALRHEIELLESSGIRVIQVDEPALREGMPLKEKDWDAYITWAVQSFLLATSSVANETQIHTHMCYSNFEDIVDAIRALDADVISIETSRSHGEFIDTLKHTTYEKGIGLGVYDIHSPRVPSKDEMYKIVEQSLQVCDPKYFWINPDCGLKTRRTEEVIPALEHMVQAAKDARSLLKTNA | not soluble
2 | MDVQQRLGGLLEITESRICLHCLGRHFVDLVEGPGNRLRGEKLQKKFSLKLSGPCMICGDVFDRIDEAAGMVKEKVDELGLEYSSVLVGTRLPPKMVELDDEIRKRLGIQTEGLKRDLNRELGKRVVKLLGCSAEFEDPDLVVMVDFRGDIRVWIQINPLFLEGRYRKLVRGIPQTRWPCRKCRGRGCERCNYTGKMYPTSVEELIAGPILEASQGRDARFHGSGREDVDVRMLGTGRPFVLEIREPRVRNLDPESLEEEVNRRAQGMVEVEGLRFSTRKRKVELKDSSQSRYKVYRALVELDGDVTDEDLERLGSLDIIKQRTPVRVSHRRADRVRERRVLEISWNLLDGCLELIIKGEGGLYIKELISGDSGRTEPSVSSVLGVPARCVALDVLEVGDEPSEKDLEHHHHHH | soluble
3 | MAALTASCIDLNIQGNGAYSVLKQLATIALQNGFITDSHQFLQTLLLREKMHSTGFGSGVAVPHGKSACVKQPFVLFARKAQAIDWKASDGEDVNCWICLGVPQSGEEDQVKIIGTLCRKIIHQEFIHQLQQGDTDQVLALLNQTLSS | not soluble
4 | RERVKKEIKDLEKAKDFTEELIEKVKKYKALAREAALSKIGELASEIFAEFTEGKYSEVVVRAEENKVRLFVVWEGKERPLTFLSGGERIALGLAFRLAMSLYLAGEISLLILDEPTPYLDEERRRKLITIMERYLKKIPQVILVSHDEELKDAADHVIRISLENGSSKVEVVS | soluble
5 | MNLNYKFERLYRVLFNEEMFYVAYQNIYSKTGNMTAGADGKTIDGMSIDRVEQLIGSLKNETYQPNPSKRTYIPKKNGKKRPLGIPSFDDKLVQEVVRMILEAIYEGSFEHTSHGFRPKRSCHTALIDIQKTFTAVKWFIEGDIKGFFDNINHDVLINILRERIADERFLRLIRKFLNAGYVEDWVFHRTYSGTPQGGIISPILANIYLDKFDKYIKEYINRFNKGVTRKGDARYKLYEQRRYRLAKKLKNEKDVKVRKQMTAEIKRLREERNNYPARNEMDSSIKRLKYVRYADDFLIGITGNLEDCKTVKEDIKNYLNEALKLELSDEKTLITNAQKPAKFLGYDVFIRRCNDLRKDKYGKTVRAFGHKPVLYLNFETMRKKLFDYKAARIAVVNGKEVWKSIVRTYMLNLDDLEIVSQFNAEIRGFYNYYSIANNSYVINSFYHIMSYSMYKVFANKYKSSVKKILLKYKKNKVFQVAYENSKGKTLYQSFYHDGFKRKKVAGNIYCDTIPRTVSITGGRNSLMERLKLQVCELCGATDKLEMHHVRKLKDLKGKSDWEKKMIARRRKTLAVCSKCHAKIDPDRRIRLNLEHHHHHH | not soluble
6 | MAHHHHHHMFNNDPLQKYDKELFDLLEKEKNRQIETINLIASENLTNTAVRECLGDRISNKYSEGYPHKRYYGGNDYVDKIEELCYKRALEAFNVSEEEWGVNVQPLSGSAANVQALYALVGVKGKIMGMHLCSGGHLTHGFFDEKKKVSITSDLFESKLYKCNSEGYVDMESVRNLALSFQPKVIICGYTSYPRDIDYKGFREICDEVNAYLFADISHISSFVACNLLNNPFTYADVVTTTTHKILRGPRSALIFFNKKRNPGIDQKINSSVFPSFQGGPHNNKIAAVACQLKEVNTPFFKEYTKQVLLNSKALAECLLKRNLDLVTNGTDNHLIVVDLRKYNITGSKLQETCNAINIALNKNTIPSDVDCVSPSGIRIGTPALTTRGCKEKDMEFIADMLLKAILLTDELQQKYGKKLVDFKKGLVNNPKIDELKKEVVQWAKNLPFA | soluble
7 | MAGDPMRVEVGQIVNTHGIKGEIKVKSNSDFTDVRFQPGQVLTVVHNNNDLEYTVKSHRVHKGLHMLTFEGINNINDIEHLKGSSIYQERDHEDIVLEENEFYYSDIIGCTVFDDQETPIGRVINIFETGANDVWVIKGSKEYLIPYIADVVKEVDVENKKIIITPMEGLLDLEHHHHHH | soluble
8 | EVVVIGYGSVKKDDLSGSVVAIKAEEMNKGAVTSPQELIMGKVPGLSVSQGDGAPGAGSTIRIRGGASLNASNDPLIVIDGIPVSNDAAPGTPNALATINPNDIETFTVLKDASATAIYGSRASNGVIII | not soluble
9 | MITSYEATVVTTDDIVHEVNLEGKRIGYVIKTENKETPFTVVDIDGPSGNVKTLNDGVKKMCLVHIGKNLPAEKKAEFLATLIAMKLKGEI | not soluble
10 | MGSDKIHHHHHHMIDVTFDPTLANTLAQSLKLTAIALPLDLQIGDLTRLTDAKNSYWGLKARYTKSGGASAEFAAVTTSQQRLQQVLATGATLRVWTSVNPADQLGWGWLCSQLVQAQFMGVIQRIQIPLSGPVMTEMGPVFMQNSTIGELDEPALEHDLATAKVVTAADWVAFSYHWQACYEDNAALRLILGGRVVGVPQDFLDPLVRTCYRPEQSTAQTLGRILDNYPIGMPNWWWQYRIDQIAKASVR | not soluble
11 | QGQPLANFEGGQPMEALQQWTAAVVKAVEGKLPGITGDDAEAEPAEDPRFEPATEALNAGDFDAAIAVYEEILRHEPKNQMALQARDNARLLSRLKDADRSVDPIAVADADLQDVDKAFAAADAEITTGKVEEAFDRLIELLPNEKVRTRLLELYSVFEPSDSRVQAARSKMASKLF | not soluble
12 | MAHYPPSKDQLNELIQEVNQWAITNGLSMYPPKFEENPSNASVSPVTIYPTPIPRKCFDEAVQIQPVFNELYARITQDMAQPDSYLHKTTEALALSDSEFTGKLWSLYLATLKSAQYKKQNFRLGIFRSDYLIDKKKGTEQIKQVEFNTVSVSFAGLSEKVDRLHSYLNRANKYDPKGPIYNDQNMVISDSGYLLSKALAKAVESYKSQQSSSTTSDPIVAFIVQRNERNVFDQKVLELNLLEKFGTKSVRLTFDDVNDKLFIDDKTGKLFIRDTEQEIAVVYYRTGYTTTDYTSEKDWEARLFLEKSFAIKAPDLLTQLSGSKKIQQLLTDEGVLGKYISDAEKKSSLLKTFVKIYPLDDTKLGREGKRLALSEPSKYVLKPQREGGGNNVYKENIPNFLKGIEERHWDAYILMELIEPELNENNIILRDNKSYNEPIISELGIYGCVLFNDEQVLSNEFSGSLLRSKFNTSNEGGVAAGFGCLDSIILY | soluble
13 | MGSDKIHHHHHHMATFTRKAIMQTFLHILKNKPLDRITVKDICEQCEINRNTFYYYFKDIYDVLEAIFEDEVRLVMDEAKEGVTFHDAYARVAALILNNREAIMHIYASENGRVLRTYLDAVVTQVVRRFVLEKAEGYSLDDSDIAFITAFYSNGIVGSTIKWIERGSMMSRLPENITANGVGLSKSQYNRDIVKRIGDSFDATIYDMIECCL | not soluble
14 | MGSDKIHHHHHHLFDRYEAGETAVLVHIDFTDEGSREDLAELQLLVESAGARSVGVITGSRRAPDRKFFVGTGKAEELAAMVAATDANVVIFNHALSPAQERNLEHLCRCRVLDRTTLILDIFAQRARTHEGKLQVELAQLRHMSTRLVRGWTHLERQKGGIGLRGPGETQLETDRRLLRGRIKNINRRLEKVDKQREQSRRARQRSDMAAVSLVGYTNAGKSTLFNTLTSAEVYAADQLFATLDPTLRKLELPDGAAILADTVGFIRHLPHDLVAAFKATLQETREADLLLHVIDCADEKMRDNIEQVQAVLKEIDADEIPQLIVCNKIDLVEGIKPAIDRDDTGKPFRVWLSAQQNQGLDLLRQAVQELVGNVIAELTLKIPATAGHYLGQFYRLDAIQQKEYDDLGNCILSVRLPDADWRRLAKQSQGELETFIVDTATDRVVC | not soluble

Reference: the DeepSol protein solubility set
